Assay [1] addresses adenylate kinase (Adk), split-YFP fusion (E. coli) (UniProt P69441). Description: split reporter (BiFC, NanoBiT); split monomeric EYFP (155/156) in living E. coli BW27783; NYFP fusion IPTG-induced, CYFP fusion arabinose-induced (0.2% arabinose, 1 mM IPTG), 30 °C 4-5 h; mean fluorescence intensity (MFI) of 30,000 cells by flow cytometry; both configurations measured, the higher value used; inducers also titrated for three pairs.

In assay [2] the target is T1, FolK, purified protein (E. coli, UniProt P26281 1-159).
T1 construct: FolK of E. coli (encoded by the gene folK); Expression and purification are not described
T1 sequence: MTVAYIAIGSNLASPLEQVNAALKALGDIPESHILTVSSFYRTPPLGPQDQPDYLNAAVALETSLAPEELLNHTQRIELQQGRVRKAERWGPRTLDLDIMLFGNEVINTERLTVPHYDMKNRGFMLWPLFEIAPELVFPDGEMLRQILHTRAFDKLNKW
Description: Raman spectroscopy; titration: DHFR 7.5-50 µM, FolK fixed at 15 µM; area of the interaction-specific peak at ~1663 cm^-1 against DHFR concentration, hyperbolic fit. To be noted: both partners purified.

Residue numbers refer to the chain shown, from its start. Numbers in names are those of the source.

adenylate kinase (Adk), split-YFP fusion (E. coli), sequence (P69441 whole entry, the tested form may be a part): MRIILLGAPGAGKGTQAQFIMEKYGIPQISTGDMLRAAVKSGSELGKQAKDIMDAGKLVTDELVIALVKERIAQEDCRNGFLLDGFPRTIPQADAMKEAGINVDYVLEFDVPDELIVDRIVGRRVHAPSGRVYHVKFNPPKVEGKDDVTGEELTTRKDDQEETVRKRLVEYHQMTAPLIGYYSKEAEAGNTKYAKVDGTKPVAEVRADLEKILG

In assay [1], “dihydrofolate reductase (DHFR, FolA), split-YFP fusion (from UniProt P0ABQ4 1-159) (enzyme)” registered an MFI (mean YFP fluorescence intensity) of 641.

B1: DHFR, wild type, purified protein (enzyme, E. coli)
chain: MISLIAALAVDRVIGMENAMPWNLPADLAWFKRNTLNKPVIMGRHTWESIGRPLPGRKNIILSSQPGTDDRVTWVKSVDEAIAACGDVPEIMVIGGGRVYEQFLPKAQKLYLTHIDAEVEGDTHFPDYEPDDWESVFSEFHDADAQNSHSYCFEILERR
notes: dihydrofolate reductase (DHFR, FolA) of E. coli; Expression and purification are not described; also called WT DHFR; WT-DHFR
On to B1, for which, in assay [2], binding was characterised by a dissociation constant (Kd) of 22 µM.

B2: N23V DHFR, purified protein (enzyme, E. coli)
chain: B1 chain with N23V
notes: dihydrofolate reductase (DHFR) of E. coli with one substitution; as m28; Expression and purification are not described; also called N23V mutant of DHFR
As for B2, binding in assay [2] was characterised by a dissociation constant (Kd) of 5.1 µM.

B3: D132H DHFR, purified protein (enzyme, E. coli)
chain: B1 chain with D132H
notes: dihydrofolate reductase (DHFR) of E. coli with one substitution; as m28; Expression and purification are not described; also called D132H mutant of DHFR
Regarding B3, the affinity in assay [2], expressed as Kd, was 8.1 µM.

B4: D144N DHFR, purified protein (enzyme, E. coli)
chain: B1 chain with D144N
notes: dihydrofolate reductase (DHFR) of E. coli with one substitution; as m28; Expression and purification are not described; also called D144N mutant of DHFR
For the molecule B4, the Kd (usually the concentration at which binding is half-saturated) in assay [2] is 10 µM.

The values above are taken from PMC12583656, “Conserved interfaces mediate multiple protein–protein interactions in a prokaryotic metabolon” (Molecular Systems Biology, 2025).
